Experimental data from the nanobody polyreactivity screen of Harvey et al. (2022).

Experiment: yeast display, Sf9 membrane polyspecificity reagent, FACS + sequencing; frameworks hold sequencing errors
Outline: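 Galactose-induced (36–48 hours) yeast carrying a synthetic nanobody display library were exposed to 10% biotinylated, detergent-solubilized Sf9 membrane reagent at 4 °C for 1 hour. FACS followed streptavidin microbead enrichment, using low and high (top ~1%) gates for expression (anti-HA) and reagent binding (streptavidin). Colony PCR, MiSeq 2 × 250 sequencing and CDR-length filtering followed. Labels for polyreactivity reflect the gate of origin.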
In the case of “QVQLVESGGGLVQAGGSLRLSCAASGRIIASYAMGWNRHAPGKETELVAAISLSGGSTYYADSVKGRFTISRDNAKNTVYLQMNSLKPEDCAVYYCAAKNYRRYRDYYWGQGTQVSVSS”, the “polyreactivity (PSR sort gate)” value is reported as “high polyreactivity”.
With “QVQLVESGGGLVQAGGSLRLSCAASGLIFHHNAMGWYRQTPGKERELVAAISRSAGSTYYADSVKGRFTISRDNAKNTVYLQMKSLKPEDTAVYYCAKGPTPTSKYDTVGYGYWGQGTQVTVSS” the “polyreactivity (PSR sort gate)” value was “low polyreactivity”.
For “QVQLVESGGGLVQAGGSLRLSCAASGRIFRGNAMGWYRQVPGKERELVAAISSGTRTTYADSVKGRFTISRDNAKNTVYLQMNSLKPEDTAVYYCAAYNSYLGYPYYYWGQGTQVTVSS”, the “polyreactivity (PSR sort gate)” value was “high polyreactivity”.
For “QVQLVESCLGLVQAGGSLRLSFADSGIIIMFYSMGWYRQATGKERELLAAISASGGRTYYADSVKGRFTISRDNAKNTVYLQMNSLKPEDTAVYYCARLLPTPGKPILDYWGQGTQVTVSS”, the “polyreactivity (PSR sort gate)” value was “low polyreactivity”.
For “QVQLVESGRGLFQSGGSLRLSCAASGRTFVPYAMGWYRQAPGKESELVAAISYSGDSTYYADSVKGRFTISRDNAKNTVYLQMKSLIPEDTAVYYCAKRGPVRNTAYDYWGQGTQVTVSS”, the “polyreactivity (PSR sort gate)” value was “low polyreactivity”.
In the case of “QVQLVESGGGLVQAGGSLRLSCAASGSTFVQNTMGWYRQAPGKERELVAAITRGGSTSYADSVKGRFTISRDNAKNTVYLQMNSLKPEDTAVYYCNAKSRSPTYRYRSWPYNYWGQGTQVTVSS”, the “polyreactivity (PSR sort gate)” value is reported as “high polyreactivity”.
With “QVQIVESGGGLVQAGGSLRLSCAASGLTFILYAMGWYRQAPGKERELVAAISYDGGSTYYADSVKGRFTISRDNAKNTVYLQMNSLKPEDTAVYYCAADSYYYQGYRRYNYDYWGQGTQVTVSS” the “polyreactivity (PSR sort gate)” value was “high polyreactivity”.
In the case of “QVQLVESGGGLVQAGGSLRLICAASGLIFYKYAMGWYRQAPGKERELVAAITSGGSTNYADSVKGRFTISRDNAKNSVYLQMNSLKPEVTAVYYCNADYNHYLVVRWWYPPVDYWGQGSQVTVSS”, the “polyreactivity (PSR sort gate)” value is reported as “low polyreactivity”.
In the case of “QVQLVESGGGLVQAGGSLRLSCAASGITFAYYAMGWYRQAPGKERELVAAISSTGSSTYYADSVKGRFTISRDNAKNTVYLQMNSLKPEDTAVYYCNKLQQYTLSEYWGQGTQVTVSS”, the “polyreactivity (PSR sort gate)” value is reported as “high polyreactivity”.
With “QVQLVESGGGLVQAGGSLRLSCAASGSTFYYYAMGWYRQAPGKERELVAAISRGGSTYYADSVKGRFTISRDNAKNTVYLQMNSLKPEDTAVYYCAVDARPYRQIYLYEYWGQGTQVTVSS” the “polyreactivity (PSR sort gate)” value was “low polyreactivity”.
For “QVQLEESGGGLVQAGGSLRLSCAASGGIFYEYAMGRYRQAPGKERELVATISFNVASTYADSVKGRFTISRDNAKNTVFLQMNSMKPEDTAVYYCIADTYWYRDSRYDYWGQGTQVTVSS”, the “polyreactivity (PSR sort gate)” value was “low polyreactivity”.
With “QGQLGESGGGLVQAGGSLRLSSPASGIIFWDYAMAWSRQSPGNEREFVAAINTSGGTTTYADSVKGRFTISRDNAKNTVYLQMNSLKPEDTAVYYCAADPWGYYSYAYYYWGQGTQVTVSS” the “polyreactivity (PSR sort gate)” value was “low polyreactivity”.
In the case of “QVQLVESGGGLVQAGGSLRLSCAASGSIFTRNAMGWYRQAPGKERELVAAISRGGGTNYADSVKGRFTISRDNAKNTVYLQMNSLKPEDTAVYYCAARVGYPYPAGYDYWGQGTQVTVSS”, the “polyreactivity (PSR sort gate)” value is reported as “high polyreactivity”.
For “QVQLVESGGGLVQAGGSLRLSCAASGSTFRIYAMGWYRQAPGKERELVAAITSGGDTNYADSVKGRFTISRDNANNTVYLQMKSLKPEDTSVYYCAADGHSVYTELDYWGQGTQVTVSS”, the “polyreactivity (PSR sort gate)” value was “low polyreactivity”.
For “QVQLVESGGGLVQAGGSLRLSCAASGSISYTYAMGWYRQATGKERELVASISYSEGITYYADSVKGRFTISRDNAKNTVYLQMNSLKPEDTAVYYCAVEGVYPYYDQSEYDYWGQGTQVTVSS”, the “polyreactivity (PSR sort gate)” value was “high polyreactivity”.
For “QVQLVESGGGLVQAGGSLRLSCAASGITFSRNVMGWYRQAPGKERELVAAISRSGGRTYYADSVKGRLTISRDNAKNTVYLQMNSLKPEDTAVYYCNRDIGGTSVLDDYWGQGTQVTVSS”, the “polyreactivity (PSR sort gate)” value was “low polyreactivity”.
In the case of “QVQLVESGGCLLQAGGSLRLSCAASGYTFGKNAMGWYRPAPGKERELVARIRTNGGTTYYADSVKGRFTISRDIAKYTVYLQMYSLKPEDTAVDYCNAYRGYEYDYWGQGTHVTVSS”, the “polyreactivity (PSR sort gate)” value is reported as “low polyreactivity”.
With “QVHLVESGGGLVQAGGSLRLSCAPSGFTFGYNAMGWYRQAPGKERELVAAISYRDGSTYYADSVKGRFTISRDTAKNTVYLQMNSLKPEDTAVYYCAAEVWYPGWGYDYWGQGTQVTVSS” the “polyreactivity (PSR sort gate)” value was “high polyreactivity”.
In the case of “QVQLVESGGGLVQAGGSLRLSCAASGSTFGSYVMGWYRQAPGKERELVAAISQRGTSTYYADSVKGRFTISRDNAKNTVYLQMNSLKPEDTAVYYCNALYWQIGDDYWGQGTQVTVSS”, the “polyreactivity (PSR sort gate)” value is reported as “high polyreactivity”.
For “QVQHVESGGGLVQAGGSLRLSCAPSGITFYTYTMGWYRQAHGKERQLVAVISASGARTYYADSVKGRFTISRDNAKNTVYLQMNSLKPEDTAVYYCAARSYFISPWRFDYWGQGTQVTVSS”, the “polyreactivity (PSR sort gate)” value was “high polyreactivity”.
With “QVQLVESGAGLVQAGGSLRLSCAASGSTFYFNGMGWYRQAPGKERELVAAISSTGNTYYADSVKGRFTISRDNAKNTVYLQMNSLKPEDTAVNDCLAGSSEAGYYWGHGTQVTVSS” the “polyreactivity (PSR sort gate)” value was “high polyreactivity”.
In the case of “QVQLVESGRGLVQAGGSLRLSCAASGRIFPFYAMGWYRQAPGKERELVAAISSSGGSTYYADSVKGRFTISRDNAKNTVYLQMNSLKPEDTAVYYCAATRNSDGMGYWGQGTLVTVSS”, the “polyreactivity (PSR sort gate)” value is reported as “low polyreactivity”.
With “EEELVESGGGLVQAGGSLRLSCAATGSIFVVNAMRWYRQAPGKERELVAAIARGGITNYADSVKGRFTISRDNAKNTVYLQMNSLKPEDTAVYYCNARGSRWVKPDRDYWGQGTQVTVSS” the “polyreactivity (PSR sort gate)” value was “low polyreactivity”.
For “QVQLVESGGGLVQAGGSLRLSCAASGSTFYLYAMGWYRQAPGKERELVASITSGDGSTYYADSVKGRFTISRDNPKNTVYLQMNSLKPEDTAVYDCNAVLEGWFYQDDYWGQGTQVSVSS”, the “polyreactivity (PSR sort gate)” value was “low polyreactivity”.
In the case of “QDPLVESGGGLVQAGGSLSLSCAASGRNIPVYAMGWYSQAPGKERELVATISYSGSSTYYADSVKGRFTNSRDNAKNTVYLEMYSLKPEDTAVYYWNADAFGPPGVQYYNWGQGTKVTVSS”, the “polyreactivity (PSR sort gate)” value is reported as “low polyreactivity”.
With “QVQLVESGGGLVQAGGSLRLSCAASVSTFAPNAMGWYRQAPGKEMELVASIRRGGSTHYADSVKGRFTISRDNAKNTVYLQMNSLQPEDTAVYYCAAEFRDVSSNGYDYWGQGTQVTVSS” the “polyreactivity (PSR sort gate)” value was “low polyreactivity”.
In the case of “QVQLVESGGGLVQAGGSLRLSCAASGSTFRYYAMGWYRQAPGKERELVAAISARGTSTYYADSVKGRFTISRDNAKNTVYLQMNSLKPEDTAVYYCNDYLHATEYDYWGQGTQVTVSS”, the “polyreactivity (PSR sort gate)” value is reported as “high polyreactivity”.
For “QVQLVESGGGLVQPGGSLRISCAASASTFFPYAMGWYRQAPGKERELVAAITGSGGSTYYADSVKGRFTISRDNAKNTVYLQMNSLKPEDTAVYYCNAVWEYYGKSDYWGQGTQVTVSS”, the “polyreactivity (PSR sort gate)” value was “low polyreactivity”.
With “QVQLVESGGGLVQAGGSLRLSCAASGRTFGWNAMGWYRQAPGKERELVASIRYSGGTTYYADSVKGRFTISRDNAKNTVYLQMKSLKPEDTAVYYCNSAYYNTGATRPYGYGYWGQGTQVTVSS” the “polyreactivity (PSR sort gate)” value was “low polyreactivity”.
With “QVQLVESGGGLVQAGGSLRLSCAASGRIIPNNAMGWYRQAPGKERELVAAITRGGTTYADSVKGRFTISRDNAKNTVYLQMNSLKPEDTAVYYCDTAAVKYGYRYYYWGQGTQVTVSS” the “polyreactivity (PSR sort gate)” value was “high polyreactivity”.
For “QVQLVESGGGLVQAGGSLRLSCAASGRTFAPYAMGWYRQAPGKERELVAAISWSGGSTYYADSVKGRFTISRDNAKNTVYLQMNSLKPEDTAVYYCAADGGQTEFDYWGQGTQVTVSS”, the “polyreactivity (PSR sort gate)” value was “high polyreactivity”.
In the case of “QVQLVESGGGLVQAGGSLRLSCAASGSTFVRNAMGWYRQAPGKERELVAGISTGDNTYYADSVKWRFTISRDNAKNTVYLQMISLKPEDTAVYYCNATKEFSFGLDYWGQGTQVTVSS”, the “polyreactivity (PSR sort gate)” value is reported as “low polyreactivity”.
For “QVQLVESGGGLVQAGGSLRLSCAASGFTFTYYAMGWYRQAPGKERELVAGISRSGGSTYYADSVKGRFTISRDNAKNTVYLQMNSLKPEDTAVYYCAATAYSPRGKRYDSWGQGTQVTVSS”, the “polyreactivity (PSR sort gate)” value was “high polyreactivity”.
In the case of “QVQLVESGGGLDQARGTLRLSCAASGSTILGNAMGWYRHAPGKERELVAGITSGGTTNYADSVKGRFTISRVNAKNNVYLQMTSLKPEDTSVYYCNAGGHLEMNYWGKGTQVTVSS”, the “polyreactivity (PSR sort gate)” value is reported as “low polyreactivity”.
In the case of “QVQLVESGGGLVQAGGSLRLSCAASGSIFRAYAMGWDRQAPGKERELVATISGSGGSRSYADSVKGRFTISRDNAKNTVDLQMNSLKPEDTAVYYCARDRYYKYTSYDYWGQGTQVTVSA”, the “polyreactivity (PSR sort gate)” value is reported as “low polyreactivity”.
In the case of “QVQLVESGGGLVQAGGSLRLSCAACGSTFYGHAMGWYRQAPGKRELVAAITWSGGSTYYADSVKGRFTISRDNAKNTVYLQMNSLKPEDTAVYYCAADRRNNNGASGTRLDYWGQGTQVTVSS”, the “polyreactivity (PSR sort gate)” value is reported as “low polyreactivity”.
For “QVQHVESAGGLVQAGGSLSLSCAASGSIFNLYAMGWYRQAPGKERELVAAIRWDGGSTYNADSVKGRFTISRDTAKNTVYLQMNSLKPEDTAVYYCAAETVYFRLLILDYWGQGTQVTVSS”, the “polyreactivity (PSR sort gate)” value was “high polyreactivity”.
In the case of “QVQLVESGGGLVQAGGSLRLSCAASGRIFYKNVMGWYRPAPGKERELVATITRRGGRTFYADSVKGRFTISRDNAKNTVYLQMNSLKPEDTAVYFCNVLPQPGKESTGDDYWGQGTQVTVSS”, the “polyreactivity (PSR sort gate)” value is reported as “high polyreactivity”.
With “QVQLVESGGGLVQAGGSLRLSCAATGITFGRNTMGWYRQAPGKERDLVAAIDSGGNTYADSVKGRFTISRDNAKNTVYLQMNSLKPEDTGVFYSAGDGGELSSYGYWGQGTQVTVSS” the “polyreactivity (PSR sort gate)” value was “low polyreactivity”.
For “QVQLVESGGGLDQAGGSLRLSCAASGSTFDWYTMGWNRQAPGKERELVAAISSGGRTYYADSVKGRFTISRDNAKNTVYLQMNSLKPEDTAVYYCAVAWRVGITKYGYWGQGTQVTVSS”, the “polyreactivity (PSR sort gate)” value was “high polyreactivity”.
With “QVQLVESGGGLVQAGGSLRLSCAASGFIFWTYAMGWYRQAPGKERELVARISWSGGSTYYADSVKGRFTISRDNAKNTVYLQMNSLKPEDTAVYYCARLATLYESIEYDYWGHGTQVTVSS” the “polyreactivity (PSR sort gate)” value was “low polyreactivity”.
In the case of “QVQLVESGGGLVHAGGPLRLSCAASGFTFGEYAMGWYRPAPGKERELVAAITWSVGSTYYADSVKGRFTISRDNAKNTVYLEMNSLKPEDTAVYYCAAVLNWSRYGYWGQGTQVTVSS”, the “polyreactivity (PSR sort gate)” value is reported as “low polyreactivity”.
In the case of “QVQLVESGGGLVQPGGSLRLSCAASGRTFGYNAMGWYRQAPGKERELVAAIRYSGGSTYYADSVKGRFTISRDNAKNTVYLQMNSLKPEDTAVYYCAAYSLFSSYGNDYWGQGTQVTVSS”, the “polyreactivity (PSR sort gate)” value is reported as “high polyreactivity”.
